Target: T1, filaggrin-2 (FLG2) fragment identified as prey in the double-hybrid screens, corresponding to amino acids … (human, UniProt Q5D862 2-213)
T1 construct: range 2-213; Prey
T1 sequence (looked up): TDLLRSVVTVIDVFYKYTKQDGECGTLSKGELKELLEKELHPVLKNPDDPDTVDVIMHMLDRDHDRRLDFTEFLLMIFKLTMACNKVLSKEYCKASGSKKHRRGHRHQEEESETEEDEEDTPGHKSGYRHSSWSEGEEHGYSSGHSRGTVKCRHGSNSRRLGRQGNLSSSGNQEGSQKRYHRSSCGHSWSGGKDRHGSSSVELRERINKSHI
Experiment: supplementary double-hybrid experiments

binding result: binds
B1: N-terminal fragment of SASPase-28 (amino acids 11-86, SEQ ID No.: 16) (peptide)
chain: RQHAFVPEPFDGANVVPNLWLHSFEVINDLNHWDHITKLRFLKESLRGEALGVYNRLSPQDQGDYGTVKEALLKAFG
